{"source": "patent US20140072613A1", "about": "“Compositions and Methods for Treating Cutaneous Scarring” (priority 2012, published 2014)", "test_in_all_cases": "cell-based or functional assay", "key": {"CDK2/cyclinA(h) (human)": {"target": "CDK2/cyclinA(h) (human) (UniProt P24941)"}, "ErbB4(h) (human)": {"target": "ErbB4(h) (human) (UniProt Q15303)", "sequence (Q15303 706-991 limits assumed)": "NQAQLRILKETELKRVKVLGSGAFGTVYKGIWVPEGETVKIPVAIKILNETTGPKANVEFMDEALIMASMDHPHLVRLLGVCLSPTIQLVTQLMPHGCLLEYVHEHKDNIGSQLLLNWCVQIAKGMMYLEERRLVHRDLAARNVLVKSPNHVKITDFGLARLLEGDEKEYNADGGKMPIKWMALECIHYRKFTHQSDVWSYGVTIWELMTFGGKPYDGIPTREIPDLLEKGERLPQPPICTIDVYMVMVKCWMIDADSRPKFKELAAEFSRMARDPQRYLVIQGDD"}, "DCAMKL2(h) (human)": {"target": "T1, DCAMKL2(h) (human) (UniProt Q8N568)", "T1 sequence (looked up)": "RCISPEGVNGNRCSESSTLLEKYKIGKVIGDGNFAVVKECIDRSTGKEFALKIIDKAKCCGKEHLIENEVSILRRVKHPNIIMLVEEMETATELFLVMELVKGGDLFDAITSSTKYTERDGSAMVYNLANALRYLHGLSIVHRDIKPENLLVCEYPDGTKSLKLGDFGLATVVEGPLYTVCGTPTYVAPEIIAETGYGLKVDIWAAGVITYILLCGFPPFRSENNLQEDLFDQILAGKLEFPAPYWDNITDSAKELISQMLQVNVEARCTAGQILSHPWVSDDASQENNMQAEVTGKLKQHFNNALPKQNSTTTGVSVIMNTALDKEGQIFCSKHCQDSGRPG"}, "CK2(h) (human)": {"target": "CK2(h) (human)"}, "MSK2(h) (human)": {"target": "MSK2(h) (human) (UniProt O75676)", "sequence (O75676 whole entry)": "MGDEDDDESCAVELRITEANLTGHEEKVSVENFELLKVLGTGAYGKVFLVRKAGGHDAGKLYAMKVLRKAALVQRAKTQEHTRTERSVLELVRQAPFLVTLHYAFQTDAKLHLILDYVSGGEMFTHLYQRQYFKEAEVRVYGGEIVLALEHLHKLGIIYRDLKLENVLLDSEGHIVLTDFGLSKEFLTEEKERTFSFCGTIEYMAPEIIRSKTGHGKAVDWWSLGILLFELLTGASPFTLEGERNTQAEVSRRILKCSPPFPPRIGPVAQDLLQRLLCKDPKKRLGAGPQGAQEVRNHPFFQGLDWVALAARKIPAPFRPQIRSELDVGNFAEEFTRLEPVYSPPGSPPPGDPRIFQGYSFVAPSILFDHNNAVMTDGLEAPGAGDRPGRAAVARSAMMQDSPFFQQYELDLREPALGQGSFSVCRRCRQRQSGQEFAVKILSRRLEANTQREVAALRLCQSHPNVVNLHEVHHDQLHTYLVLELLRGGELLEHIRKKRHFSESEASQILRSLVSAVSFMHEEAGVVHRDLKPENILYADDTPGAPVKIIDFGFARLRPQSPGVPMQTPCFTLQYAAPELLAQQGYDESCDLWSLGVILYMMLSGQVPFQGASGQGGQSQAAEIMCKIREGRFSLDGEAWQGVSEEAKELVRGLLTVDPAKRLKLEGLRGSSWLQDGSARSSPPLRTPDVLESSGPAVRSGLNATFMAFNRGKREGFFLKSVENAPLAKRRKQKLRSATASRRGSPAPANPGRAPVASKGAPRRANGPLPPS"}, "BrSK2(h) (human)": {"target": "T2, BrSK2(h) (human) (UniProt Q8IWQ3)", "T2 sequence (looked up)": "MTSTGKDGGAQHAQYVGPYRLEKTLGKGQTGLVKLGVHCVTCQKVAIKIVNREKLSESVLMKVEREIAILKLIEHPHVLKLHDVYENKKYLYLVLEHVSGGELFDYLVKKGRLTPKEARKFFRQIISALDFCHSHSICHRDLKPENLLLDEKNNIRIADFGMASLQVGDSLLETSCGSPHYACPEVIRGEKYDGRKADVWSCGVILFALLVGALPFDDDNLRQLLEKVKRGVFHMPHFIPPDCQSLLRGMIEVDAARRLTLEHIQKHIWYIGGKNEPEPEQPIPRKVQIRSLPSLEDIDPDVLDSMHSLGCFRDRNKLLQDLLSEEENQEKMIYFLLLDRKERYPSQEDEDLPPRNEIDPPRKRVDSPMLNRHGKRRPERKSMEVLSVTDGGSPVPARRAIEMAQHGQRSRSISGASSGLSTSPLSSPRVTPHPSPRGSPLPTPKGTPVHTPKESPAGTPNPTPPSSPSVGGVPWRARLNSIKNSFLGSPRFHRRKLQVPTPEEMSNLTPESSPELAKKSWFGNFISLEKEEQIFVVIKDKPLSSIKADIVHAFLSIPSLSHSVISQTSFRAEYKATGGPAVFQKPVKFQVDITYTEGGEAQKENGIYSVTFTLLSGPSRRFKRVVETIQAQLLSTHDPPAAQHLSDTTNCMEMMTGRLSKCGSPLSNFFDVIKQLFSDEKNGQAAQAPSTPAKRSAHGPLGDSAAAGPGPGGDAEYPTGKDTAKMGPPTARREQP"}, "Abl(T315I)(h) (human)": {"target": "Abl(T315I)(h) (human) (UniProt P00519)", "sequence (P00519 27-1130 T315I limits assumed)": "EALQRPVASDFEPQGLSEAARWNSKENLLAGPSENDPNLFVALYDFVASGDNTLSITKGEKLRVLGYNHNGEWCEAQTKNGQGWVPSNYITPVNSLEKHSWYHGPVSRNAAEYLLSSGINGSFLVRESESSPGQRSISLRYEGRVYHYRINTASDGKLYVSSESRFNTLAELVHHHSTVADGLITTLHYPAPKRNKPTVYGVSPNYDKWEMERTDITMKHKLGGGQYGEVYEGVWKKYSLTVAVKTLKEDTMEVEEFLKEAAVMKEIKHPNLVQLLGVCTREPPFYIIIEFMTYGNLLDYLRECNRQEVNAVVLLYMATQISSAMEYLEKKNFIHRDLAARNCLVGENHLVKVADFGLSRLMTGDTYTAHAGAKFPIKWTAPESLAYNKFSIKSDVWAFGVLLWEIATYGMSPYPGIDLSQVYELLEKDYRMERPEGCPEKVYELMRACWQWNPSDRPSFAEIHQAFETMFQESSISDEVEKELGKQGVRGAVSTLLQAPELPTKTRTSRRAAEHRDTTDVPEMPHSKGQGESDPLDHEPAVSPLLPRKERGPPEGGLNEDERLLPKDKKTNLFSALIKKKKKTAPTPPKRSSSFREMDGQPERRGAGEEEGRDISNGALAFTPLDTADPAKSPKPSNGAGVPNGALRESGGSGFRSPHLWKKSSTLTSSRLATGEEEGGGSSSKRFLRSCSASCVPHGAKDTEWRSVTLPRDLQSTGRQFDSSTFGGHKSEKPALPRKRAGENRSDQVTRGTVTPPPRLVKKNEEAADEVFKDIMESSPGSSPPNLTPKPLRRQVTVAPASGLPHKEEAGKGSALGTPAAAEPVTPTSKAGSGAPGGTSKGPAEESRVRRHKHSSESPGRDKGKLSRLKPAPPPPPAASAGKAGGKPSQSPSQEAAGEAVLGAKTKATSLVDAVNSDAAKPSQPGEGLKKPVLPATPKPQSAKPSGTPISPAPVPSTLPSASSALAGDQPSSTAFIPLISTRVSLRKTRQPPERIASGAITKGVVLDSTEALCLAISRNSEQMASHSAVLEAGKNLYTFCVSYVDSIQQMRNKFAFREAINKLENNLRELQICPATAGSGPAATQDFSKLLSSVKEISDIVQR"}, "EphB1(h) (human)": {"target": "EphB1(h) (human) (UniProt P54762)", "sequence (P54762 564-984 limits assumed)": "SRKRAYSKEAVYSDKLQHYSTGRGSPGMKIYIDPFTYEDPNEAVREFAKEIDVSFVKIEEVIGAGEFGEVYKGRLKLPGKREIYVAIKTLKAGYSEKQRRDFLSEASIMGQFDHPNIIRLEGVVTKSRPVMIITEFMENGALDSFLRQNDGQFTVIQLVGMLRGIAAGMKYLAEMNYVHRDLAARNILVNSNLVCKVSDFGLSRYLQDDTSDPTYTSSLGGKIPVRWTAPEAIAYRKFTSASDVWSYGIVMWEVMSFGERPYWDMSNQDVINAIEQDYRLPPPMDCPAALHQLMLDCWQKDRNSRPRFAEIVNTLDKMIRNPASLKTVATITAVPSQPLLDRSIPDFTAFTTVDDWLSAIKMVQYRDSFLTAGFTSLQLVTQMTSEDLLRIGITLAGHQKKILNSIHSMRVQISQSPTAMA"}, "MAPK2(h) (human)": {"target": "MAPK2(h) (human) (UniProt P28482)", "sequence (P28482 whole entry)": "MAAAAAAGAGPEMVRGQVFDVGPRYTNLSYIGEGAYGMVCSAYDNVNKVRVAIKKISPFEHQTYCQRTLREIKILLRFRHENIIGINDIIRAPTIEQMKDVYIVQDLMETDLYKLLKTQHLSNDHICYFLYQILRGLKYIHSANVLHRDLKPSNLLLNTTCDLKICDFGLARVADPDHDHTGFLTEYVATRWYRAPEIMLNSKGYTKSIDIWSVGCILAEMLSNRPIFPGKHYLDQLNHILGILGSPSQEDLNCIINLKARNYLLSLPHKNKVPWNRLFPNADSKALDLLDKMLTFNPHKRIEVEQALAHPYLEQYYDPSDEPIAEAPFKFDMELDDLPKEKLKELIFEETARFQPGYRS"}, "PKCβI(h) (human)": {"target": "PKCβI(h) (human) (UniProt P05771)"}, "Ret(V804M)(h) (human)": {"target": "T3, Ret(V804M)(h) (human) (UniProt P07949)", "T3 sequence (looked up)": "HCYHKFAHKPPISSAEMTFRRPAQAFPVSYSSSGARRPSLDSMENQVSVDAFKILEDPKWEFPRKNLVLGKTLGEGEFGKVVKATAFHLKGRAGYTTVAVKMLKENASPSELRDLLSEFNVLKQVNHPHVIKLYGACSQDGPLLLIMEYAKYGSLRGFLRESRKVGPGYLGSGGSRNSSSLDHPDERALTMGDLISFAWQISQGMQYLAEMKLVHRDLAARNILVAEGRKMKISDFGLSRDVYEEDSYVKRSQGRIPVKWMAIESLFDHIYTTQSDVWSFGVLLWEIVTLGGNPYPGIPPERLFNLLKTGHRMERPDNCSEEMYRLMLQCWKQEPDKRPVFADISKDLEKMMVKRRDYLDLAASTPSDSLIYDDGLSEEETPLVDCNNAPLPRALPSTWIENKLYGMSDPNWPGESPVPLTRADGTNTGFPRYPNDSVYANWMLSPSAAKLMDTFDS"}, "PAK2(h) (human)": {"target": "PAK2(h) (human) (UniProt Q13177)", "sequence (Q13177 whole entry)": "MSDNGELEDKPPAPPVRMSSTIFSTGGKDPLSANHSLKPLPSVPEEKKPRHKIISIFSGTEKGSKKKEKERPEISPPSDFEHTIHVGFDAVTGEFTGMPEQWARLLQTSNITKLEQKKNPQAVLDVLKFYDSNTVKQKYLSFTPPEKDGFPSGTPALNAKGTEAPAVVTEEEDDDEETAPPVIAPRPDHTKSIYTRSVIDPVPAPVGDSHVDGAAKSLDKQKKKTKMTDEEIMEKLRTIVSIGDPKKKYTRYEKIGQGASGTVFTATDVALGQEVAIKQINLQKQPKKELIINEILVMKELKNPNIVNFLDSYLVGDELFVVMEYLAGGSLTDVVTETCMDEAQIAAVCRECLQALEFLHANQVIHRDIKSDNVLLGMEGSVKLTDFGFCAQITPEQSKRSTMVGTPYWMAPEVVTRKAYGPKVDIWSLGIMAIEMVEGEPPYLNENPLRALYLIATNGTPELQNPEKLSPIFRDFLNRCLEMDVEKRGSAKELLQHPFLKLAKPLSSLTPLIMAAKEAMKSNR"}, "DRAK1(h) (human)": {"target": "DRAK1(h) (human) (UniProt Q9UEE5)", "sequence (Q9UEE5 whole entry)": "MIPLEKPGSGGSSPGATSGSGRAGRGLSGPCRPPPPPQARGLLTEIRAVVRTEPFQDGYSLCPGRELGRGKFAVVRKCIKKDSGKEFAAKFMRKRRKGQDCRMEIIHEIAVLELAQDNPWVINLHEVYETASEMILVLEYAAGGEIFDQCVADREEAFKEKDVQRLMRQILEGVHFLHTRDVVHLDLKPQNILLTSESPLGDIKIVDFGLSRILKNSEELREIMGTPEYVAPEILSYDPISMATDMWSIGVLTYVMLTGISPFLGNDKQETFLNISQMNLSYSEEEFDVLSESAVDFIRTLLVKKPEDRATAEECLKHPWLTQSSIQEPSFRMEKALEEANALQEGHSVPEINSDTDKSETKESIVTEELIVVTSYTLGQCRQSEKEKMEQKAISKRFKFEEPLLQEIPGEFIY"}, "PKG1β(h) (human)": {"target": "T4, PKG1β(h) (human) (UniProt Q13976)", "T4 sequence (looked up)": "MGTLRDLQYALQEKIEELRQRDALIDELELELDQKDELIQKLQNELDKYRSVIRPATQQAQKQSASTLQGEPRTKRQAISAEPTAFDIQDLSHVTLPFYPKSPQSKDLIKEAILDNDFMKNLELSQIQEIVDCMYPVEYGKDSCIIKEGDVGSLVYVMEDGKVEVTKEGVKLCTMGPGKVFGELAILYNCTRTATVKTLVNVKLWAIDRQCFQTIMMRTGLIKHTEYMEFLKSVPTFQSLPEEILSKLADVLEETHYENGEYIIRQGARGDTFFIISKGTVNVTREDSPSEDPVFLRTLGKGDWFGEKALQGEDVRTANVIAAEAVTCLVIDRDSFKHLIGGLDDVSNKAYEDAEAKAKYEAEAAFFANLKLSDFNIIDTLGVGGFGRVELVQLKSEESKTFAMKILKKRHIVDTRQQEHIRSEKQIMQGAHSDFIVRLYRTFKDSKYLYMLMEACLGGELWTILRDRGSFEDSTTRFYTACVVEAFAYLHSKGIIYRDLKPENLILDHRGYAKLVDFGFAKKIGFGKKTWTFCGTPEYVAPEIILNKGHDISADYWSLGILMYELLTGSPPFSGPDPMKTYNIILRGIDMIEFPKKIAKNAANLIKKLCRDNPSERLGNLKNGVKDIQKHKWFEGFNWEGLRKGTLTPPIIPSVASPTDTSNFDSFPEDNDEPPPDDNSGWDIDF"}, "MLCK(h) (human)": {"target": "MLCK(h) (human)"}, "WNK2(h) (human)": {"target": "WNK2(h) (human) (UniProt Q9Y3S1)", "sequence (Q9Y3S1 166-489 limits assumed)": "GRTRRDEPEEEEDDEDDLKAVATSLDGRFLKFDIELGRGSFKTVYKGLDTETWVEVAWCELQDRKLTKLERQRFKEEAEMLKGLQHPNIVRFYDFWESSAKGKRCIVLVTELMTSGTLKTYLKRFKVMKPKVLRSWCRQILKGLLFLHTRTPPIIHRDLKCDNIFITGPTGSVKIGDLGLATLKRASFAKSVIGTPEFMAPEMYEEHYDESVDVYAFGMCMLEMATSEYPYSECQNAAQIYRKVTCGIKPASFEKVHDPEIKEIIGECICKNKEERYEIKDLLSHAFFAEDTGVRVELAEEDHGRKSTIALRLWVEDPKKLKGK"}, "Lck(h) (human)": {"target": "Lck(h) (human) (UniProt P06239)"}, "Lck(h) activated (human)": {"target": "Lck(h) activated (human) (UniProt P06239)"}, "PRAK(h) (human)": {"target": "PRAK(h) (human) (UniProt Q8IW41)", "sequence (Q8IW41 whole entry)": "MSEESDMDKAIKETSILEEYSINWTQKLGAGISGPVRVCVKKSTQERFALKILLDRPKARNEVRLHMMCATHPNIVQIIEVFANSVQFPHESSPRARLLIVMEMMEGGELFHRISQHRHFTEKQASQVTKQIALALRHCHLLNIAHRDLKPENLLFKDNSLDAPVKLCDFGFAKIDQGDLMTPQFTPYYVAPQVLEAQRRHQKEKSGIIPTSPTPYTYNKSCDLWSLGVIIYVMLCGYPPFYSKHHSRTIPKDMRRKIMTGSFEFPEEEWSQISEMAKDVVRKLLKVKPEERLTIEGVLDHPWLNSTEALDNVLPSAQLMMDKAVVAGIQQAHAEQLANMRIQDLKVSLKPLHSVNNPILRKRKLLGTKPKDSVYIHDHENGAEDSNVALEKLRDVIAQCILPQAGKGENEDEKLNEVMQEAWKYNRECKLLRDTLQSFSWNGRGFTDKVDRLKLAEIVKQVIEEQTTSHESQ"}}, "data": [{"substance": "MMI-0500 (peptide)", "values": [{"measurement": "% activity, 100 µM", "setting": "CDK2/cyclinA(h) (human)", "value": 87, "unit": "%"}, {"measurement": "% activity, 100 µM", "setting": "ErbB4(h) (human)", "value": 2, "unit": "%"}, {"measurement": "% activity, 100 µM", "setting": "DCAMKL2(h) (human)", "value": 56, "unit": "%"}, {"measurement": "% activity, 100 µM", "setting": "CK2(h) (human)", "value": 93, "unit": "%"}, {"measurement": "% activity, 100 µM", "setting": "MSK2(h) (human)", "value": 14, "unit": "%"}, {"measurement": "% activity, 100 µM", "setting": "BrSK2(h) (human)", "value": 84, "unit": "%"}, {"measurement": "% activity, 100 µM", "setting": "Abl(T315I)(h) (human)", "value": 16, "unit": "%"}, {"measurement": "% activity, 100 µM", "setting": "EphB1(h) (human)", "value": 37, "unit": "%"}, {"measurement": "% activity, 100 µM", "setting": "MAPK2(h) (human)", "value": 60, "unit": "%"}, {"measurement": "% activity, 100 µM", "setting": "PKCβI(h) (human)", "value": 1, "unit": "%"}, {"measurement": "% activity, 100 µM", "setting": "Ret(V804M)(h) (human)", "value": 36, "unit": "%"}, {"measurement": "% activity, 100 µM", "setting": "PAK2(h) (human)", "value": 44, "unit": "%"}, {"measurement": "% activity, 100 µM", "setting": "DRAK1(h) (human)", "value": 8, "unit": "%"}, {"measurement": "% activity, 100 µM", "setting": "PKG1β(h) (human)", "value": 24, "unit": "%"}, {"measurement": "% activity, 100 µM", "setting": "MLCK(h) (human)", "value": 0, "unit": "%"}, {"measurement": "% activity, 100 µM", "setting": "WNK2(h) (human)", "value": 8, "unit": "%"}, {"measurement": "% activity, 100 µM", "setting": "Lck(h) (human)", "value": 359, "unit": "%"}, {"measurement": "% activity, 100 µM", "setting": "Lck(h) activated (human)", "value": 76, "unit": "%"}, {"measurement": "% activity, 100 µM", "setting": "PRAK(h) (human)", "value": 95, "unit": "%"}]}]}
